From the nanobody polyreactivity screen of Harvey et al. (2022)

test: yeast display, Sf9 membrane polyspecificity reagent, FACS + sequencing; frameworks hold sequencing errors
Procedure, shortened: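 Using colony PCR, genes from sorted yeast display clones were amplified, then sequenced on MiSeq at 2 × 250 and filtered by CDR length. The clones had been stained with 10% biotinylated, detergent-solubilized Sf9 membrane reagent for 1 hour at 4 °C and sorted by FACS into low and high (top ~1%) gates on anti-HA and streptavidin fluorescence. Polyreactivity labels come from the gate of origin.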

Sequence	polyreactivity (PSR sort gate)
QVQLVESGGGLVQAGGSLRLSCAASGGTFIANAMGWYRQAPGKERELVATINANADTTYYADSVKGRFTISRDNAKNTVYLQMNSLKPEDTAVYYCAAAQRYPIKYYYWGQGTQVTVSS	low polyreactivity
QVQLVESGGGLVQAGGSLRLICAASGLTFYVNAMGWYRQAPGKERELVADISSGVSTNYADSVKGRFTISRDNAKNTVYLQMNSLKPEDTAVYYCNVERYKKLSRTHNYRRYNYWGQGTQVTVSS	high polyreactivity
QGQRVESGGGLVQAGGSLRLSCAASGSTFPWYAMGWYRQARGSERELVAGISEGGASTYYADSVKGRFTISRDNAKNTVYLQMNSLNPEDTAVYYCAADQVGAVYWVGEYGYWGQGTHVTVSS	low polyreactivity
QVQLVESGGGLVQAGGSLRLSCAASRGIFGYNAMGWYRQAPGKERELVARISSSGGSTYYADSVKGRFTISRDNAKNTVYLQMNSLKPEDTAVYYCNTASNRYPGWRAEFDYWGQGTQVTVSS	low polyreactivity
QVQLVESGGGLVQAGGSLRLSCAASGFIFSQNVMGWYRQAPGKERELVAAISSSGGSTYYADSVKGRFTISRDNAKNTVYLQMNSLKREDTAVYYCAARPYVRFNYWGQGTQVTVSS	high polyreactivity
QVKLVESGGGLVQAGGSLRLSCAASGSIFLAYAMGWYRQAPGKEREFVAAISCSDGSTYYADSVKGRFTISRDNAKNTVYLQMNSLKPDDTAVFYCYKGASADDYDYCGQGTQVTVSS	low polyreactivity
QVQLVESGGGLVQAGGSLRLSCAASGSIFYRYAMGWYRQAPGKESELVAAITQSTDSTYYADSVKGRFTISRDNAKNTVYLQMNSLKPEDTAVYYCAAYLVYYRPYAYGYWGQGTQVTVSS	low polyreactivity
QVQLVESGAGLVQAGGSLRLSWAASGFTFAQNAMGWYTQAPGKERELVAAISRRGGSTYYADSVKGRFTISRDNAKNTVYLQMNSLKPEDTAVYYCDTAGTYTGGEGYWGQGTQVTVSS	high polyreactivity
QVQLVESGGRLVQAGGSLRLTCAASGRTFNYYAMGWYRQAPGKERELVAAISRSGGSTYYADSVKGRFTISRDNAKNTVYLQMNSLKPEDTAVYYCNRDRGSIYGWGQGTQVTVSS	high polyreactivity
HVQLLESGGGLVQAGGSLRLSCAASGITFQFYPKGWYRQAPGKERELVAAISYSGGSTYYADSVKGRFTISRDNAKNTVYLQMNSLKAADTAVYYCAAVSYSSRGNYWGQGTQVTVSS	high polyreactivity
QVQLVESGGGLVQAGGSLRLSCASSGFIFSSYAMGWYRQAPGKERELVARISLSGGSTFYADSVKGRFTISRDNAKNTVYFQMNSLKPEDTAVYYCAARDFSTHFSPMDYWGQGTQVTVSS	low polyreactivity
QVQLVESGGGLVQAGGSLRLSCAASGSTFGLYAMGWYRQAPRKERELVAVIRWGSGRTYYADSVKGRFTISRDNAKNTVYLQMNSLKPEDTAVYYCAKDRSYGSSSKRFGYWGQGTQVTVSS	high polyreactivity
QVQLVESGGGLVQAGGSLRLSCAASGFIFSPYAMGWYRQAPGKERELVATITWSGGRTYYADSVKGRFTISRDNAKNTVYLQMNSLKPEDTAVYYCNADGYQPALNKDFGYWGQGTQVTVSS	low polyreactivity
QVQLVESGGGLVQAGGSLRLSCAASGRTFGRYAMGWYRQAPGKERELVAAISIRGGRTTYADSVKGRFTISRDNAKNTVYLQMNSLKPEDTAVSYCAKVISVRGGYGYWGQGTQVTVSS	high polyreactivity
QVQLVESGGGLVQAGGSLRLSCAASGFTFDPYAIGWYRQAPGKERELVAAISISGGRTYYADSVKGRITISRDNAKNTVYVQMISLKPEDSAVYYCAVAQSHYFGGYGYWGQGTKVTVSS	low polyreactivity
QVQLVESGGGLVQAGGSLRLSCDASGFTFYSYARGWYRQAPGKEREFVASISRSGGSTYYADSVKGRFTISRDNAKYTVYLQMNSLKAEDTEVYYCAARSVRDRDGGDYWGQGTQVTVSS	high polyreactivity

Sequence	polyreactivity (PSR sort gate)
QVQLVESGGGLVQAGGSLRLSCAASGFTYGYYAMGGYRQAPGKERELVAAITNGGRTNYADSVKGRFTISRDNAKNTVYLQMNSLKPEDTAVYYCATDHYWSREGYWGQGTQVTVSS	low polyreactivity
QVQLVESGGGLVQAGGSLRLSCAASGSIFGFNAMGWYRQAPGKERELVAAINNGGSTNYADSVKGRFTISRDNAKNTVYLQMNSLKPEDTAVYYCAVGTLTYEGFRTYYYWGQGTQVTVSS	high polyreactivity
QVQLVESGGGLVQAGGSLRLSCAASGGTFFSNAMGWYRQAPGKERELVAGITSGGRTYYADSVKGRFTISRDNAKNTVYLQMNSLKPEDTAVYYCATQSWVRYGQPEFDYWGQGTQVTVSS	high polyreactivity
QVQLVESGGGLVQAGGSLRLSSAASGLTFALYAMGWYRQAPGKERELVATISRGASTNYADSVKGRFTISRDNTKNTVYLQMNSLKPEDTAVYYWAVALRSTPRTREVRPSPRVYYWGQGTQVTVSS	high polyreactivity
QVQLVESGGGLVQAGGSLRLSCAASGYIFKYNTMGWYRQAPGKERELVASITWSGVRTYYADSVKGRFTISRDNAKNTVYLQMNSLKPEDTAVYYCNAAYRRSWDSDDYWGQGTQVTVSS	low polyreactivity
QVQLVESGGGLVQAGGSLRLSCADSGSTFRIFAMGWYRQAPGKERELVAAITGGGTHYADSVKGRFTISRDNAKNTVYLQMNSLTPEDTAVYYCAANRSKLYRYAMGYWGQGTQVTVSS	high polyreactivity
QVQLVESGGGLVQAGGSLRLSCAASGIIFITNAMGWYRQAPGKERDLVAVISFSGGGTYADSVKGRFTISRDNAKNTVYLQMNSLTPEDTAVYYCAKYWLSALTLEDDYWGQGTQVTVSS	low polyreactivity
QDQHVESGGGLVQAGGSLRLSCAASGRTFYQYAMGWYRQAPGKERELVAVINGGGSTNYADSVKGRFTISRDNAKNTVYLQMNSLKPEDTAVYYCNAGSVSDRQMDYWGQGTQVTVSS	low polyreactivity
QVQLVESGGGLVQAGGSLRLSCAASGRTFSPYMGWYRQAPGKEGELVAAISKSGGRTYYADSVKGRFTISRDNAKNTVYLQMNSLKPEDTAVYYCATTGNNYYYALYGYWGQGTQVTVSS	low polyreactivity
QVQLVESGGGLVQAGGSLRLSCAASGSILGPNAMGWYRQAPGKERELVARISTSGGSTYYADSVKGRFTISRDNAKNTVYLQMNSLKPEDTAVYYCATGLVWWRSPYDYWGQGTQVTVSS	high polyreactivity
QVQLVESGGGLVQAGGSLRLSCAASGSIFGNAMGWYRPAPGKERELVAAISRRGGRTYYADSVKGRFTISRDNAKNTVYLQMNSLKPEDTAVYYCANTAKTWGWWLRGYGYWGQGTQVTVSS	high polyreactivity
QVQLVESGGGLVQAGGSLRLSCSASGFIFITVNAMGWYRQAPGKEREFVAAITRSGTGTYYADSVKGRFTISRDHAKNTVYLQMNSLKPEDTAVYYCAADATSTGAYDYWGQGTQVTVSS	low polyreactivity
QVQLVESGGGLVQAGGSLRLSCAASGLIFVPYAMGWYRQAPGKERELVAAINSGATTYYADSVKGRFTISRDNAKNTVYLQMNSLKPEDTAVYYCAARSRFTESSRYYYWGQGTQVTVSS	high polyreactivity
QVQLVESGGGLVQAGGSHRISCAASGFIFPYYAMGWYRQAPGKERELVAAITSGGSTNYADSVKGRFTISRDNAKNTVYLQMTSLKPEDTAVYYCDKRLKRWSVYCRYDYWGQGTQVTVSS	high polyreactivity
QVQLVESGGGLVQAGGSLRLSCAASGSTFARNAMGWYRQAPGKERELVAAITTRGSSTYYADSVKGRFTISRDNAKNTVYLQMNSLKPEDTAVYYCAARTQAPLGKYGYWGQGTQVTVSS	high polyreactivity
KVQLVESGGGLVQAGGSLRISCAASGRICWGYVMGWYRQAPGKERELVAAISSGGDTHYADSVKGRFTISRDNAKNTVYLQMNSLKPEDTGVYYCAARPNFTPYEYGYWGQGTQVTVSS	low polyreactivity
